The values below come from ChEMBL document CHEMBL2074411.

Substrate in this data set: NCCc1ccc(O)c(O)c1
Briefly: cells, lysate or membranes named.

B1: Solute carrier family 22 member 2 (Rattus norvegicus) (protein)
chain: MSTVDDILEHIGEFHLFQKQTFFLLALLSGAFTPIYVGIVFLGFTPDHHCWSPGAAKLSQRCGWSQAEELNYTVPGLGPSDEASFLSQCMRYEVDWNQSTLDCVDPLSSLAADRNQLPLGPCEHGWVYNTPGSSIVTEFNLVCAHSWMLDLFQSVVNVGFFIGAMMIGYLADRFGRKFCLLVTILINAISGALMAISPNYAWMLVFRFLQGLVSKAGWLIGYILITEFVGLGYRRMVGICYQIAFTVGLLILAGVAYVIPNWRWLQFAVTLPNFCFLLYFWCIPESPRWLISQNKIVKAMKIIKHIAKKNGKSVPVSLQNLTPDEDAGKKLNPSFLDLVRTPQIRKHTLILMYNWFTSSVLYQGLIMHMGLAGDNIYLDFFYSALVEFPAAFIIILTIDRVGRRYPWAVSNMVAGAACLASVFIPDDLQWLKITIACLGRMGITMAYEMVCLVNAELYPTYIRNLGVLVCSSMCDIGGIITPFLVYRLTDIWMEFPLVVFAVVGLVAGALVLLLPETKGKALPETIEDAENMQRPRKKKEKRIYLQVKQADRPLS
For B1, the Michaelis constant (Km) (commonly the concentration of substrate that gives half-maximal velocity) worked out at 2300 µM.
